Data reported in the DeepSol protein solubility set.

assay: soluble on expression in E. coli; label from the status in PepcDB or PDB records

Soluble on expression in E. coli, soluble:
GMADIDQASKTEMEAAAFRHLLRHLDEHKDVQNIDLMIQADFCRNCLAKWLMEAATEQGVELDYDGAREYVYGMPFAEWKTLYQKPASEAQLAAFEAKQAARKR, GMAGAAHRLMEARMRRYDNKFARISDIDINQPESWRGRIFLTFDIDWAADFVLQDTIDLIEGAGVCATWFATHSTPLLENIRRNPLFELGVHPNFNPLLAGAHAEGVQEILDRTLELAPGCVSVRSHSLVQATSILNMFGERRLRYDCNILVPWDAGIVLQPWRHWTGDMVRVPYLWEDDVACLYDWEFDSTFDYWYQPDGINVLDFHPIHVYMNTESLRRYEDSREVHRNPVDLIRWRNTSAGSRTFLQSLLARNI, GMATSTDRTQEIQKLHELIKNIDYGMFTTVDDDGSLHSYPMSKSGDINSEATLWFFTYAGSHKVTEIEHHEQVNVSFSSPEQQRYVSISGTSQLVKDRNKMRELWKPELQTWFPKGLDEPDIALLKVNINQVNYWDSTSSFKPQTISF, GMDMKTKLQTIIGMFQITAWDETSYFESDNGAKLTQAVITQSYQGVLQGHSEIRYLMSYQDNANATFVGFEHFTGSLGDKKGSFILQHKGLFAAGVASSEFELVERSATGDFVHLVGKGHFVSTENGQANYQITLQDS, GMDTAKTKPFDEMFLQDEVIRPIYAEYAAWLQDVPHQQLESKRQEAELLFRRVGITFNVYGEDAGAERLIPFDVVPRILSASEWARLSDGAIQRVKALNMFLHDVYHDQEIIKAGIVPSSILANAQYRPEMFGVDVPGGVYAHIAGVDLVRTGENDFYVLEDNLRTPSGVSYMLENRKMMMRLFPELFRRYPVAPVEHYPQVLLNNLRAVAQAGVHEPTVVLLTPGAYNSAYFEHAFIAQQMGIELVEGQDLFVRNNAVYMRTTEGPKRVDVIYRRIDDDFIDPLSFRPDSMLGVPGLLSVYRNGGVTLANAVGTGVADDKDTYIYVPEMIRFYLGEEPILSNVPTYQLSKADDLKYVLDNLAELVVKEVQGSGGYGMLVGPAASKQELEDFRQRILANPANYIAQPTLALSTCPTLVETGIAPRHVDLRPFVLSGKTVSLVPGALCRVALREGSLVVNSSQGGGTKDTWILKD, GMEEINKYIQNSSETGGEIYNLIEELFPICRSITGNGVRKTMDIIRKHIPLEIHEVKSGTKVFDWTVPKEWNIKDAYVRNSKGEKVIDFKENNLHVMSYSVPVHKTMTLDELKPYLHTIPGNKDRIPYLTSYYKENWGFSLTQNKFDELCDDDYEVVIDSSLEDGSLTYGEYYIRGELEEEILLTTYTCHPSMCNDNLSGVALITFIAKALSKLKTKYSYRFLFAPETIGSITWLSRNEDKLKNIKMGLVATCVGDAGIKNYKRTKFGDAEIDKIVEKVLMHCGSEYYVADFFPWGSDERQFSSPGINLSVGSLMRSCYGFDGYHTSADNLCYMNKDGLADSYKTYLEVIYTIENNRTYLNLNPKCEPQLGKRGIYRMIGGGSDYPFDEFAMFWVLNMSDGKNSLLDIAYKSGMEFRRIKYAADALYRVELLKLV, GMEQHQVWAYQTKTHSVTLNSVDIPALAADDILVQNQAIGINPVDWKFIKANPINWSNGHVPGVDGAGVIVKVGAKVDSKMLGRRVAYHTSLKRHGSFAEFTVLNTDRVMTLPDNLSFERAAALPCPLLTAWQAFEKIPLTKQREVLIVGFGAVNNLLTQMLNNAGYVVDLVSASLSQALAAKRGVRHLYREPSQVTQKYFAIFDAVNSQNAAALVPSLKANGHIICIQDRIPAPIDPAFTRTISYHEIALGALHDFGDRQDWQILMQQGEALLTLIAQGKMEIAAPDIFRFEQMIEALDHSEQTKLKTVLTLNE, GMEVNRLSALTPPMGWNSWDCYGASVTEEEVLGNAEYMANHLKKYGWEYIVVDIQWYEPTANSSAYNPFAPLCMDEYGRLLPATNRFPSAKNGAGFKPLSDAIHDLGLKFGIHIMRGIPRQAVYENSPVLGSTKTAREIAHTNSICPWNTDMYGVDPTKEGAQSYYNSLFELYAQWGVDFVKVDDIAASRLYDTHLEEIKMIQRAIQACGRPMVLSLSPGPAPIKYAHHFKTNANMWRITDDFWDDWSLLYQMFERCEVWEKHIGTGHWPDCGMLPLGHIGIRSVDGPGGDRWTRFTKDEQLTMMNLWAICHSPLMFGGELRDNDEWTLSLLTNEGILSINQKSVLNRFVYREEDKVAWAANGRNGEAYVALFNLHDQQKTLQFRLDMVGIMETVQLFNVWDRSFLQSLAPSESFQIELKPHQSMMLKLSPDR, GMFVSDQAEAKGFIEDSSLDLLLRNYYFNRDGKSGSGDRVDWTQGFLTTYESGFTQGTVGFGVDAFGYLGLKLDGTSDKTGTGNLPVMNDGKPRDDYSRAGGAVKVRISKTMLKWGEMQPTAPVFAAGGSRLFPQTATGFQLQSSEFEGLDLEAGHFTEGKEPTTVKSRGELYATYAGETAKSADFIGGRYAITDNLSASLYGAELEDIYRQYYLNSNYTIPLASDQSLGFDFNIYRTNDEGKAKAGDISNTTWSLAAAYTLDAHTFTLAYQKVHGDQPFDYIGFGRNGSGAGGDSIFLANSVQYSDFNGPGEKSWQARYDLNLASYGVPGLTFMVRYINGKDIDGTKMSDNNVGYKNYGYGEDGKHHETNLEAKYVVQSGPAKDLSFRIRQAWHRANADQGEGDQNEFRLIVDYPLSILHHHHHHHH, GMIKIAIVGFGTVGQGVAELLIRKREEIEKAIGEFKVTAVADSKSSISGDFSLVEALRMKRETGMLRDDAKAIEVVRSADYDVLIEASVTRVDGGEGVNYIREALKRGKHVVTSNKGPLVAEFHGLMSLAERNGVRLMYEATVGGAMPVVKLAKRYLALCEIESVKGIFNGTCNYILSRMEEERLPYEHILKEAQELGYAEADPSYDVEGIDAALKLVIIANTIGVKASYEDVEVTGITQITPEAFQVAAEKGYTIRLIAEVSREKLKVSPRLVPFHHPLAIKGTMNAAMFKTDTAGSIFVAGRGAGKEETASAILSDLYEIYAGPR, GMIKKEGPGWRIIFDSSRDNFSTLIGGETWAIELDKSEWKILVEVVMELCDQYKLVKEQLMGDEDITLELERRPWLAILNGDQYGWNLRLILSASGLFNRGAEVYWPRHVTNNVVNAMRSMWDSDYL, GMKDNYDAPESMLTGRVMYNGEALQLRGNEAVQLQLYQHGYAKHDPINVYVNQDGMYSANLFDGEYQMITKSGNGPWTSEGRDTINVTVAGNTVQDVEVTPYYLVRDAQMTLEGNKVNASFKVEKVAGGGIDRVFFMLSTTQFVNDAEHNVDRYDETDNLDAYDETGKLYTFATRDYTDNSMFQTALKRGTLFGRICIWPKGSDQGIYSKVIRLK, GMKRAVVVFSGGQDSTTCLIQALQDYDDVHCITFDYGQRHRAEIEVAQELSQKLGAAAHKVLDVGLLNELATSSLTRDSIPVPDYDANAQGIPNTFVPGRNILFLTLASIYAYQVGAEAVITGVCETDFSGYPDCRDEFVKALNQAIVLGIARDIRFETPLMWLNKAETWALADYYQQLDTVRYHTLTCYNGIKGDGCGQCAACHLRANGLAQYQKDAATVMASLKQKVGLR, GMLEFTKRSLMNKYNINERVLELYERALNDVEKEFKYYDEIREYNQLKVLKAFQEERISESHFTNSSGYGYNDIGRDSLDRVYANIFNTESAFVRPHFVNGTHAIGAALFGNLRPNDTMMSICGMPYDTLHDIIGMDDSKKVGSLREYGVKYKMVDLKDGKVDINTVKEELKKDDSIKLIHIQRSTGYGWRKSLRIAEIAEIIKSIREVNENVIVFVDNCYGEFVEEKEPTDVGADIIAGSLIKNIGGGIATTGGYIAGKEEYVTQATFRVTVPGIGGECGSTFGVMRSLYEGLFMAPHVTIEAVKGAVFCARIMELAGFDVLPKYNDKRTDIIQAIKFNDEKKLIDFIKGIQTASPVDSFVQCEAWDMPGYEDKVIMAAGTFVQGASIELSADAPIREPYIGYLQGGLTFDHAKLGVLIALSKLIM, GMNLQTDQTTTTADESAIRAFHRQMIDAWNRGSGEGFAAPFSETADFITFEGTHLKGRKEIAAFHQQAFDTVVKGTRLEGEVDFVRFVNSQLALMLVVIRVILPGQTETSASRDSLPLYVVTKGDEGWQIEGLLNTRKLTLERQFFLDDFDSLSAEAQRQVTDLVASLKQSH, GMNNSLAFNHDTLPQKVMFGYGKSSAFLKQEVERRGSAKVMVIAGEREMSIAHKVASEIEVAIWHDEVVMHVPIEVAERARAVATDNEIDLLVCVGGGSTIGLAKAIAMTTALPIVAIPTTYAGSEATNVWGLTEAARKTTGVDLKVLPETVIYDSELTMSLPVEMSVASGLNGLAHCIDSLWGPNADPINAVLAAEGIRALNQGLPKIVANPHSIEGRDEALYGAYLAAVSFASAGSGLHHKICHTLGGTFNLPHAQTHATVLPYVLAFNAGDAPEAERRAAAAFGTDTALEGLQRLRLSVNAPKRLSDYGFEASGIAEAVDVTLEKVPANNPRPVTRENLSRLLEAALNGEDPAVLSAVLSN, GMPSEKQPQSKGNKMAILKLDEHLYISPQLTKADAEQIAQLGIKTIICNRPDREEESQPDFAQIKQWLEQAGVTGFHHQPVTARDIQKHDVETFRQLIGQAEYPVLAYCRTGTRCSLLWGFRRAAEGMPVDEIIRRAQAAGVNLENFRERLDNARV, GMSDIKKLGSSWIINWFFGFNQIPTNEDSSIYMKSVLTCAKADGVISPEEKDWALGFCASWGVADWVIEDLKTYEADEALEEVIARSPQVSMAQRDILLSAIWVSAADGELHEKEKAKIRKMATILGIKEEIVDQLEQLYYYEAALRQKRLNLLYPQKSPY, GMSEPVFPTPEAAEDAFYAAFEARSLDDMMAVWARDDHVACIHPLAAPLNGRAAVAAGWRSMFGAAGRFRLQVKAVHEIRQADHVIRIVDEFLTIGDETAPRPAILATNVYRREADGWRMVLHHASPLQVGAKAGADTPPVVFH, GMSRAPDTWILTADCPSMLGTVDVVTRYLFEQRCYVTEHHSFDDRQSGRFFIRVEFRQPDDFDEAGFRAGLAERSEAFGMAFELTAPNHRPKVVIMVSKADHCLNDLLYRQRIGQLGMDVVAVVSNHPDLEPLAHWHKIPYYHFALDPKDKPGQERKVLQVIEETGAELVILARYMQVLSPELCRRLDGWAINIHHSLLPGFKGAKPYHQAYNKGVKMVGATAHYINNDLDEGPIIAQGVEVVDHSHYPEDLIAKGRDIECLTLARAVGYHIERRVFLNANRTVVL, GMTARNILSYSYEEYVEKITAFHGYPAPGVLIGGFMVDLAVKNLPEGILYDAICETRTCLPDAVQLLTPCTFGNGWLTVLPMGLFAVSLYDKFTGEGVRVFLDVEKMGPWQEIRNWFLKLKTKKEQDSERLFKEIREAGPDILELRNVKLKPGFLEKKHKGKIVLCPQCREAYPAQDGELCLSCQGGSPYL, GMTQDNASGDQVSKQHKAFLRKLYLAHLMDDARHNLLSLGKLTGMPRRTLQDAIASFADIGIEVEFVQDGERHNAGYYRIRTWGPISSAWMDTHVDEVKSLLGVDDAVGQATAGNGA, GMTQKEWPLWEVFVRSKQGLEHKHCGSLHATDAQQALHMARDVYTRRQEGVSIWVVPSTAITASAPEEKPELFDPMADKIYRHPTFYQLPDEVNHM, GMTVRDENYFTEKYGLTRTHSDVLAAAKVVAPGRTLDLGCGNGRNSLYLAANGYDVTAWDKNPASMANLERIKAAEGLDNLQTDLVDLNTLTFDGEYDFILSTVVMMFLEAQTIPGLIANMQRCTKPGGYNLIVAAMDTPDFPCTVGFPFAFKEGELRRYYEGWDMLKYNEDVGELHRTDENGNRIKLRFATMLARKTA, GMVRRTRAEMEETRATLLATARKVFSERGYADTSMDDLTAQASLTRGALYHHFGDKKGLLAAVVEQIDAEMDERLQAISDTAEDDWEGFRCRCRAYLEMALEPEIQRIVLRDARAVLGGASPDSQRHCVESMQRLIDNLIRQGVVAEADPQALASLIYGSLAEAAFWIAEGEDGNARLAQGVAALELLLRGLLVKPR
